Target: the molecule itself
Assay: cryo-EM structure

B1: human CPEB3 residues 1-217 (prion-like domain 1 construct) (domain or fragment, UniProt Q8NE35 1-217, looked up)
chain: MQDDLLMDKSKTQPQPQQQQRQQQQPQPESSVSEAPSTPLSSETPKPEENSAVPALSPAAAPPAPNGPDKMQMESPLLPGLSFHQPPQQPPPPQEPAAPGASLSPSFGSTWSTGTTNAVEDSFFQGITPVNGTMLFQNFPHHVNPVFGGTFSPQIGLAQTQHHQQPPPPAPAPQPAQPAQPPQAQPPQQRRSPASPSQAPYAQRSAAAAYGHQPIMT
  binding result: binds
